A short description of the series: yeast display, Sf9 membrane polyspecificity reagent, FACS + sequencing; frameworks hold sequencing errors. The procedure, abridged:
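In a synthetic yeast display library (Saccharomyces cerevisiae BJ5465), nanobody expression was induced with galactose for 36–48 hours. FACS gates were set low and high (top ~1%) using anti-HA fluorescence for expression and streptavidin fluorescence for binding of the Sf9 membrane reagent. Each polyreactivity label is drawn from the gate of origin.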
Turning to “QVQLVESGGGLVQAGGSLRLSCAASASIVFTYVMGCYSQAPWKERELVSAITSDDNTNYADSVKGRFTISRVNAKNTVYLQMNSLKPEDTAVYYCNADTTLYPYYEYGYYDYDYWGHGTQVTVSS”, the “polyreactivity (PSR sort gate)” value was “low polyreactivity”.
The same measure for “QVQLVESGGGLVQAGGSLRLSCAASASTFLSYAMGWYRQAPGKERELVAAITSRGGSTYYADSVKGRFTISRDIAKNTVYLQMNSLKPEDTAVYYCATRLGYGDSKVRRPYSRFYYWGQGTQVTVSS”: “high polyreactivity”; for “QVQLVESGGGLVQAGGSLRLSCAASASTLYRTAMGWYRPAPGKEREMVAAINYRGTRTYYADSVKGRFTISRDNAKNTVYLLMKSLNPEDTAVYYCAKDYSQFVTYPYDYWGQGTQVSVSS”: “low polyreactivity”; for “QVQLVESGGGLVQAGGSLRLSCAASAYTFDGYAMGWYRQAPGKERELVAAINSGGGTYYADSVKGRFTISRDNAKNSVYLQMNSLKPEDTPVYYCNASVKPSNVWSRGYDYWGQGTQVTVSS”: “low polyreactivity”.
The same measure for “QVQLVESGGGLVQAGGSLRLSCAASDAMGWYRQAPGKERELVASISNGVSTNYADSVKGRFTISRDNAKNTVYLQMNSLKPEDTAVYYCAADAKTVGRDDLYWYEVEFDYWGQGTQVTVSS”: “low polyreactivity”; for “QVQLVESGGGLVQAGGSLRLSCAASDTPSSSMLMGWYRQAPGKERQLVAAISGSDGTTYYADSVKGRFTISRDNAKNTVYLQMNSLKPEDTAVYYCAADDRVDSGYIKDDYWGQGTQVTVSS”: “low polyreactivity”; for “QVQLVESGGGLVQAGGSLRLSCAASGATLVWNTMGWCRQAPGTERELVAGITSGGSTKYADSVKGRFTISRDNAKNTVYLQMKRLKPEDTAVYYCAADCYGQAIFIYDYWGQGTQVTVSS”: “low polyreactivity”.
The same measure for “QVQLVESGGGLVQAGGSLRLSCAASGCIFEIYAMGWYRQAPGKERELVAAITDSGGSTYYADSVKARFTISRDNANNTVYLQMNSLKPEDTAVYYCAAVGNSYETLLFYYWGQGTQVTVSS”: “low polyreactivity”; for “QVQLVESGGGLVQAGGSLRLSCAASGCIFYINTMGWYRQAPGKERELVAAISQSGVGTSYADSVKGRFTISRDNAKNTVYLQMNSLIPEDTAVYYCATDFARSDVVERFDYWGQGTQVTVSS”: “low polyreactivity”; for “QVQLVESGGGLVQAGGSLRLSCAASGCIFYSNAMGWYRQAPGKERELVAAIARSGGSTYYADSVKGRFTISRDNAKNPVYLQMNSLKPEDTAVYYCNAKFRKADYDSWGQGTEVTVSS”: “high polyreactivity”.
Turning to “QVQLVESGGGLVQAGGSLRLSCAASGCIVSYYTMGWYRQAPGKERELVAAIRSSGGSTYADSVKGRFTISRDNAKNTVYLQMNCLKPEDTAVYYCAAVQTWRWVYARDYWGEGTQVTVSS”, the “polyreactivity (PSR sort gate)” value is reported as “high polyreactivity”.
Regarding “QVQLVESGGGLVQAGGSLRLSCAASGCTFGTYAMGWYRQAPGKERELVAAITDSTGNTYYADSVKGRFTISRDNAKNTVYLQMNSLKPEDTAVYYCALEYVYDYFWMDYWGQATQVTVSS”, the “polyreactivity (PSR sort gate)” value was “high polyreactivity”.
Consider “QVQLVESGGGLVQAGGSLRLSCAASGCTFPRYAMGWYRQAPGKERELVAAISYSGGRTYYADSVKGRFTISRDNAKNTVYLQMNSLKPEDTAVYYCATEASTKRYDYWGQGTQVTVSS”, for which the “polyreactivity (PSR sort gate)” value is “high polyreactivity”.
The same measure for “QVQLVESGGGLVQAGGSLRLSCAASGCTFVSYAMGWYRQEPGKEREFVAAIAWTGGSTRYADSVKGRFTISRDNAKNTVYLQMNSLKPEDTAVYYCAARYRHYLYGYDYWGQGTQVTLSS”: “low polyreactivity”; for “QVQLVESGGGLVQAGGSLRLSCAASGDITYIYAMGWYRQAPGKERELVADISSSVGNTYYADSVKGRFTISRDNAKNTVYLQMNSLKPEDTAVYYCNADYVQPTESGGTYDYWGQGTQVTVSS”: “low polyreactivity”; for “QVQLVESGGGLVQAGGSLRLSCAASGFDFSYYDMGWYRQAPGKEREFVASIDWSGGSTYYADSVKGRFTISRDNAKNTDYLQMNSLKAEATAVYYCAAELDYFPGYDYWGQGTQVTVSS”: “low polyreactivity”.
Take “QVQLVESGGGLVQAGGSLRLSCAASGFFLGQYTMGWYRQAPGKERELVAAISSSGSTNYADSVKGRFTISRDNAKNTVYLQMNSLKPEDTAVYYCSIAGIRHVTSKFKGYHFGYWGQGTQVTVSS”: the “polyreactivity (PSR sort gate)” value is given as “low polyreactivity”.
The same measure for “QVQLVESGGGLVQAGGSLRLSCAASGFHFGSYAMGWNRQAPGKERELVASISSAGRTYYADSVKGRFTISRDNAKNTVYSQMNSLKPEDTAVYYCAAESGYPVYTYVSSGDYWGQGTQVTVSS”: “low polyreactivity”.
With “QVQLVESGGGLVQAGGSLRLSCAASGFICPIYPMGWYRQAPGKERELVAGISWRGGSTYYADSVKGRFTISRDKATYTVYLQMNSLKPEDTAVYYCAVVVQGYSTYYYWGQGTQVTVSS”, the “polyreactivity (PSR sort gate)” value is “high polyreactivity”.
For the sequence “QVQLVESGGGLVQAGGSLRLSCAASGFICVHKAMGWYREAPGNERELVAAITWSGGRTYYADSVKGRCTISRDKAKNTVYLQKNSLKPEDTAVYYCATTVNSHVPGVSKYYYWGHGTQVTVSS”, the “polyreactivity (PSR sort gate)” value is on record as “high polyreactivity”.
The same measure for “QVQLVESGGGLVQAGGSLRLSCAASGFIFAAYAMGWYRQAPGKERELVAAINRSGSSTYYADSVKGRFTISRDNAKNTVYLQMNSLKPEDTAVYYCAARVVHQSRYSYEYWGQGTQVTVSS”: “high polyreactivity”; for “QVQLVESGGGLVQAGGSLRLSCAASGFIFADNTMGWNRQAPGKERELVAAISRRGGSTYYADSVKGRFTISRDNAKNTVYLQMNSLKPEDTAVYYCAARPFVKHDYWGQGTQVTVSS”: “high polyreactivity”; for “QVQLVESGGGLVQAGGSLRLSCAASGFIFADYDMGWYRQAPGKERELVDAISWSGGTTYYADSVKGRFTISRDNAKHTVYLQMNSLKPEDTAVYYCAAYWWAVYSVVTGARYVYWGQGTQVTLSS”: “high polyreactivity”.
Consider “QVQLVESGGGLVQAGGSLRLSCAASGFIFAEYAMGWYRQAPGKERELVAAITWSGVTTYYADSVKGRFTISRDNAKNTVYLLMNSLKPEDTAVYYCAAGRTRRKFDYWGQGTQVTVSS”, for which the “polyreactivity (PSR sort gate)” value is reported as “low polyreactivity”.
With “QVQLVESGGGLVQAGGSLRLSCAASGFIFAEYAMGWYRQAPGKERELVVAIDVGGGSTYYADSVKGRFTISGDNAKNTVYLQMNSLKPEDTAVYYCAATQYGYWVPYQGFDYWGQGTQVTVSS”, the “polyreactivity (PSR sort gate)” value is “low polyreactivity”.
The same measure for “QVQLVESGGGLVQAGGSLRLSCAASGFIFAFYAMGRYRQAPGKERELVASISRRSGSTYYADSVKGRFTISRDNAKNTVYLQMNSLKPEDTALYYCAADRPPCETYGYDYWGQGTQVTVSS”: “low polyreactivity”; for “QVQLVESGGGLVQAGGSLRLSCAASGFIFAQNTMGWYRQAPGKERELVAAITRRGGSTYYADSVKGRFTISRDNAKNTVYLQMNSLKPEDTAVYYCNVAFRSYYTSSLLDYWGQGTQVTVSS”: “high polyreactivity”.
The same measure for “QVQLVESGGGLVQAGGSLRLSCAASGFIFARNTMGWYRQSPGKERELVAAITKSGGSTYYADSVKGRFTISRDNAKNTVYLQMNSLKPEDTAVYYCAKDPVELSPADWRADYDYWGQGTQVTVSS”: “low polyreactivity”; for “QVQLVESGGGLVQAGGSLRLSCAASGFIFASNTMGWYRQAPGKERELVAAISSRGGRTYYAASVKGRFTISRDNAKNTVYLQMNSLKPEDTAVYYCAAVQKGDSTLLRTKGGYWGQGTQVTVSS”: “high polyreactivity”.
The same measure for “QVQLVESGGGLVQAGGSLRLSCAASGFIFASYTLGWYRQAPGKERELVAAISRAGSTYYADSVKGRFTISRDNAKNTVYLQMNSLKPEDTAVYYCNAVSWRTSRYDYWGQGTQVTVSS”: “high polyreactivity”; for “QVQLVESGGGLVQAGGSLRLSCAASGFIFAWNAMGWYRLAPGKERELVAAITSAGSTKYADSVKGRFTISRDNAKNTVYLQMNSLKPEDTAVYYCAAARFRIYCGQGTQVTVSS”: “high polyreactivity”.
For “QVQLVESGGGLVQAGGSLRLSCAASGFIFAWYAMGWYRQAPGKERELVASISVSDGSTYYADSVKGRFTISRDNAKNTVYLQMNSLKPEDTAVYYCAADRFYDQAYDYWGQGTQVTVSS”, the “polyreactivity (PSR sort gate)” value is “low polyreactivity”.
The same measure for “QVQLVESGGGLVQAGGSLRLSCAASGFIFAYYAMGWYRQAPGKERELVAAISSRGGTYYADSVKGRFTISRDNAKNTVYLQMNSLKPEDTAVYYCAAASYTWVSRGYEYWGQGTQVTVSS”: “high polyreactivity”.
Take “QVQLVESGGGLVQAGGSLRLSCAASGFIFAYYAMGWYRQAPGKERELVAAISYNGGTTYYADSVKGRFTISRDNAKNTVYLQMNSLKPEDSAVYYCNALVHQTYYDYDYWGQGTQVTVSS”: the “polyreactivity (PSR sort gate)” value is “high polyreactivity”.
The same measure for “QVQLVESGGGLVQAGGSLRLSCAASGFIFAYYTMGWYRQAPGKERELVAAISWSGGTTYYADSVKGRFTISRDNAKNTVYLQMNSLKPEDTAVYYCNAYPKWLGYYEDDYWGQGTQVTVSS”: “low polyreactivity”.
On to “QVQLVESGGGLVQAGGSLRLSCAASGFIFDAYAMGWYRQAPGKERELVAAITRGNTYYADSVKGRFTISRDNAKNTVYLQMNSLKPEDTAVYYCAARYWQSYRSQVTHSSTLDYWGQGTQVTVSS”, for which the “polyreactivity (PSR sort gate)” value was “low polyreactivity”.
The same measure for “QVQLVESGGGLVQAGGSLRLSCAASGFIFDDYAMGWYRQAPGKERELVAAISVSSTNYADSVKGRFTISRDNAKNTVYLQMNSLKPEDTAVYYCAADTYTYFLASYLYGQYDYWGQGTQVTVSS”: “low polyreactivity”; for “QVQLVESGGGLVQAGGSLRLSCAASGFIFDGNAMGWYRQAPGKERELVAAISSDGGTYYADSVKGRFTISRDNAKNTVYLQMNSLKPEDTAVYYCAAEQTLLYSFGWDEYWGQGTQVTVSS”: “low polyreactivity”; for “QVQLVESGGGLVQAGGSLRLSCAASGFIFDGYTMGWYRQAPGKERELVAAISRSGGRTYYADSVKGRFTISRDNAKNTVYLQMNSLKPEDTAVYYCAVRYRQYSQTVASDYGYWGQGTQVTVSS”: “high polyreactivity”.
Take “QVQLVESGGGLVQAGGSLRLSCAASGFIFDHNARGWYRQAPGKERELVAAITWRGDSTYYADSVKGRFTISRDNAKNTVYLQMNSLKPEDTAVYYCNADAILVYYGKLDYWGQGTQVTVSS”: the “polyreactivity (PSR sort gate)” value is recorded as “low polyreactivity”.
